Experimental data from US20110171220A1 (ISIS INNOVATION, published 2011).

Assays:
[1] = biological target: T1, Monomeric soluble human PD-1 (human, UniProt Q15116 25-170, limits assumed); assay: SPR, antibody captured by rabbit anti-mouse Fc, soluble PD-1 injected
T1 construct: also called soluble PD-1
Procedure: FIG. 12: Dissociation rates for Clone 2, 10 and 19 antibodies determined by surface plasmon resonance-based analysis. The three antibodies and a negative control (OX-7) were bound indirectly to the biosensor surface, i.e. via a covalently coupled rabbit anti-mouse Fc antibody. Monomeric soluble human PD-1 was then injected to saturating levels over the immobilized antibodies in the buffer 10 mM Hepes, 150 mM NaCl pH 7.4. Following injection of the soluble PD-1, the buffer only was injected, allowing dissociation of the bound soluble PD-1 from each of the antibodies simultaneously. Dissociation rates were fitted using Origin v.5.0 software (MicroCal Software Inc, Northampton, Mass.) after subtraction of the dissociation rate for OX-7 dissociating from the anti-mouse Fc antibody.

[2] = biological target: T2, human PD-1 extracellular region / murine CD28 chimera, mutant R118D, on HEK-293T cells (human; mouse, UniProt Q15116 25-170; P31041 151-218, R118D); assay: flow cytometry on transfected HEK-293T cells
T2 construct: extracellular domain;domain: transmembrane and intracellular regions; Single-residue 'drastic' mutant of m4
Procedure: (§1) Constructs encoding the human extracellular region of PD-1 with the transmembrane and intracellular regions of murine CD28 were cloned into the bi-cistronic mammalian expression vector pGFP2-n2 from BioSignal Packard Ltd, which also encodes GFP. Mutant constructs varying by one amino acid were prepared using the “drastic” mutagenesis approach (Davis et al. Proc Natl Acad Sci USA. 95, 5490-4 (1998)). Plasmids (2 μg/well) were transfected into HEK-293T cells in 6 well plates using Genejuice transfection reagent (Novagen; 6 μl/well). Mock and no-transfection controls were included with each experiment. Cells were harvested at 18-24 hours and stained with anti-PD1 antibodies or isotype controls at 10 μg/ml in PBS-azide for 1 h at 4° C. Cells were washed with PBS-Azide, pelleted at 1500 rpm/5 min and primary antibodies were labelled with Alexa647-conjugated donkey anti-mouse IgG (5 μg/ml) in PBS-Azide for 30 min at 4° C. Cells were washed as above and resuspended in 200 μl PBS-Azide before being analysed at the flow cytometer. Propidium iodide (5 μg/ml) was added immediately prior to analysis to identify dead cells. GFP-positive (transfected) viable cells were gated and analysed for binding of anti-PD1 antibodies. Mutants were defined as ‘knock-out’ (reducing the percentage of cells bound by the anti-PD1 antibody) or ‘knock-down’ (reducing the intensity of antibody staining relative to other PD-1 antibodies).
(§2) Following transfection, cells analysed at the flow cytometer were 85-90% viable by propidium iodide exclusion. Transfection efficiencies ranged from 15-50% (GFP⁺). Isotype controls were negative on all transfectants. […] V18R partially eliminates Clone 19 binding.

[3] = biological target: T3, human PD-1 extracellular region / murine CD28 chimera, mutant L16R, on HEK-293T cells (human; mouse, UniProt Q15116 25-170; P31041 151-218, L16R); assay: flow cytometry on transfected HEK-293T cells
T3 construct: extracellular domain;domain: transmembrane and intracellular regions; Single-residue 'drastic' mutant of m4
Procedure: as §1, §2

[4] = biological target: T4, human PD-1 extracellular region / murine CD28 chimera, mutant V18R, on HEK-293T cells (human; mouse, UniProt Q15116 25-170; P31041 151-218, V18R); assay: flow cytometry on transfected HEK-293T cells
T4 construct: extracellular domain;domain: transmembrane and intracellular regions; Single-residue 'drastic' mutant of m4
Procedure: as §1, §2

T3 sequence (Q15116 other isoform, or with tags, fused parts or gaps L16R | L16R L16R): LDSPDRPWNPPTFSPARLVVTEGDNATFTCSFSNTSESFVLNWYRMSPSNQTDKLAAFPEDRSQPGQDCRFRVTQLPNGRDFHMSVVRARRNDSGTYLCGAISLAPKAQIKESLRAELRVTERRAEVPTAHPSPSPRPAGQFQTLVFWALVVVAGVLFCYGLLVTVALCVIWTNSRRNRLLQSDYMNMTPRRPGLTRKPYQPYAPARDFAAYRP
T4 sequence (Q15116 other isoform, or with tags, fused parts or gaps V18R | V18R V18R): as the sequence (Q15116 other isoform, or with tags, fused parts or gaps L16R | L16R L16R) above, with R17L, V19R counted along it
T2 sequence (Q15116 other isoform, or with tags, fused parts or gaps R118D | R118D R118D): as the sequence (Q15116 other isoform, or with tags, fused parts or gaps L16R | L16R L16R) above, with R17L, R119D counted along it
T1 sequence (Q15116 25-170 limits assumed): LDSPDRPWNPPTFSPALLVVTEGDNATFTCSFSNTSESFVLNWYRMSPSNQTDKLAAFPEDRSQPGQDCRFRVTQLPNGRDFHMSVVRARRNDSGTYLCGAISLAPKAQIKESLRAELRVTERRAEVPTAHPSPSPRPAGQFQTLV

Row | binding result [1] | binding result [2] | binding result [3] | binding result [4] | Binder
1 | binds |  |  |  | Clone 2 anti-PD-1 antibody (antibody, V domains shown, The printed VH ends at ...GTSVT; also called hybridoma 08090903) VH: QVQLQQPGAELVKPGASVKLSCKASGYTFTTYYLYWVRQRPGQGLEWIGGINPSNGGTNFNEKFKSKATLTVDKSSSTAYMQLNSLTSEDSAVYYCTRRDYRYDRGFDYWGQGTSVTV VL: DIVLTQSPASLAVSLGQRATISCRASKSVSTSGFNYIHWYQQKPGQPPKLLIYLASNLESGVPARFSGSGSGTDFTLNIHPVEDEDAATYYCQHSRELPLTFGAGTKLEIK
2 |  | no binding (tested: 10 µg/ml) | no binding (tested: 10 µg/ml) | binds | Clone 19 anti-PD-1 antibody (antibody, IgG1, V domains shown, the printed VH ends at ...GTLVTV; Constant regions are named only in an embodiment (GenBank D78344, V00807); also called monoclonal antibody produced by clone 19; hybridoma 08090901) VH: QVQLQQSGAELVKPGASVKMSCKAFGYTFTTYPIEWMKQNHGKSLEWIGNFHPYNDDTKYNEKFKGKAKLTVEKSSTTVYLELSRLTSDDSAVYYCARENYGSHGGFVYWGQGTLVTV VL: ENVLTQSPAIMSASPGEKVTMTCRASSSVISSYLHWYQQKSGASPKLWIYSTSNLASGVPDRFSGSGSGTSYSLTISSVEAEDAATYYCQQYNGYPLTFGAGTKLEIK
3 |  | binds | binds | binds | Clone 10 anti-PD-1 antibody (antibody, IgG1, V domains shown, the printed VH ends at ...GTTVTV; also called hybridoma 08090902) VH: DVQLQESGPGLVKPSQSLSLTCTVTGYSITSDYAWNWIRQFPGNKLEWMGYINYSGSTSYNPSLKSRISITRDTSKNQFFLQLNSVTTEDTATYYCARWIGSSAWYFDVWGAGTTVTV VL: DVLMTQTPLSLPVSLGDQASISCRSGQNIVHSNGNTYLEWYLQKPGQSPKLLIYKVSNRFFGVPDRISGSGSGTDFTLKISRVEAEDLGVYFCFQGSHVPFTFGSGTKLEIK
